Data: the supplement of paper PMC11246515
± gives the standard deviation of the averaged measurements.

Test: total protein half-life in vivo (active degradation + dilution); higher = more stable protein
[1] = E. coli NCM3722 delta-clpP delta-lon delta-hslV, growth: N-lim chemostat, doubling time 6 h
[2] = E. coli NCM3722 delta-clpP, growth: N-lim chemostat, doubling time 6 h
[3] = E. coli NCM3722 delta-hslV, growth: N-lim chemostat, doubling time 6 h
[4] = E. coli NCM3722 delta-lon, growth: N-lim chemostat, doubling time 6 h
[5] = E. coli NCM3722 delta-smpB, growth: N-lim chemostat, doubling time 6 h
[6] = wild type E. coli NCM3722, growth: C-lim chemostat, doubling time 3 h
[7] = wild type E. coli NCM3722, growth: C-lim chemostat, doubling time 6 h
[8] = wild type E. coli NCM3722, growth: C-lim chemostat, doubling time 12 h
[9] = wild type E. coli NCM3722, growth: N-lim chemostat, doubling time 6 h
[10] = wild type E. coli NCM3722, growth: N-lim chemostat, doubling time 12 h
[11] = wild type E. coli NCM3722, growth: P-lim chemostat, doubling time 6 h
[12] = wild type E. coli NCM3722, growth: P-lim chemostat, doubling time 12 h

Sequence	total protein half-life in vivo [1] [h]	total protein half-life in vivo [2] [h]	total protein half-life in vivo [3] [h]	total protein half-life in vivo [4] [h]	total protein half-life in vivo [5] [h]	total protein half-life in vivo [6] [h]	total protein half-life in vivo [7] [h]	total protein half-life in vivo [8] [h]	total protein half-life in vivo [9] [h]	total protein half-life in vivo [10] [h]	total protein half-life in vivo [11] [h]	total protein half-life in vivo [12] [h]
MKKTAIAIAVALAGFATVAQAAPKDNTWYTGAKLGWSQYHDTGFINNNGPTHENQLGAGAFGGYQVNPYVGFEMGYDWLGRMPYKGSVENGAYKAQGVQLTAKLGYPITDDLDIYTRLGGMVWRADTKSNVYGKNHDTGVSPVFAGGVEYAITPEIATRLEYQWTNNIGDAHTIGTRPDNGMLSLGVSYRFGQGEAAPVVAPAPAPAPEVQTKHFTLKSDVLFNFNKATLKPEGQAALDQLYSQLSNLDPKDGSVVVLGYTDRIGSDAYNQGLSERRAQSVVDYLISKGIPADKISARGMGESNPVTGNTCDNVKQRAALIDCLAPDRRVEIEVKGIKDVVTQPQA [P0A910]	6.64 ± 0.48	6.96 ± 0.27	6.86 ± 0.49	7.032 ± 0.055	5.84 ± 0.27	3.41 ± 0.11	6.7 ± 0.097	13 ± 1.5	6.3 ± 0.41	13.6 ± 0.81	6.224 ± 0.024	15 ± 0.76
MKKTLLAAGAVLALSSSFTVNAAENDKPQYLSDWWHQSVNVVGSYHTRFGPQIRNDTYLEYEAFAKKDWFDFYGYADAPVFFGGNSDAKGIWNHGSPLFMEIEPRFSIDKLTNTDLSFGPFKEWYFANNYIYDMGRNKDGRQSTWYMGLGTDIDTGLPMSLSMNVYAKYQWQNYGAANENEWDGYRFKIKYFVPITDLWGGQLSYIGFTNFDWGSDLGDDSGNAINGIKTRTNNSIASSHILALNYDHWHYSVVARYWHDGGQWNDDAELNFGNGNFNVRSTGWGGYLVVGYNF [P0A927]	–	> 8	6.33 ± 0.09	> 8	–	–	–	14.1 ± 1	6.53 ± 0.7	–	6.08 ± 0.99	–
MKKWAVIISAVGLAFAVSGCSSDYVMATKDGRMILTDGKPEIDDDTGLVSYHDQQGNAMQINRDDVSQIIER	4.61 ± 0.25	5.4	4.24 ± 0.17	6.65 ± 0.55	3.25 ± 1.1	2.24 ± 0.32	4.63 ± 0.37	7.88 ± 0.34	4.76 ± 0.35	8.92 ± 2.6	3.68 ± 0.91	–
MKKWSRHLLAAGALALGMSAAHADDNNTLYFYNWTEYVPPGLLEQFTKETGIKVIYSTYESNETMYAKLKTYKDGAYDLVVPSTYYVDKMRKEGMIQKIDKSKLTNFSNLDPDMLNKPFDPNNDYSIPYIWGATAIGVNGDAVDPKSVTSWADLWKPEYKGSLLLTDDAREVFQMALRKLGYSGNTTDPKEIEAAYNELKKLMPNVAAFNSDNPANPYMEGEVNLGMIWNGSAFVARQAGTPIDVVWPKEGGIFWMDSLAIPANAKNKEGALKLINFLLRPDVAKQVAETIGYPTPNLAARKLLSPEVANDKTLYPDAETIKNGEWQNDVGAASSIYEEYYQKLKAGR [P0AFK9]	–	5.36 ± 0.48	6.46 ± 0.61	6.271 ± 0.061	5.94 ± 0.35	3.44 ± 0.58	6.44 ± 0.57	13.6 ± 0.72	6.07 ± 0.22	11.99 ± 0.032	5.59 ± 0.35	12.5 ± 0.19
MKKYLALALIAPLLISCSTTKKGDTYNEAWVKDTNGFDILMGQFAHNIENIWGFKEVVIAGPKDYVKYTDQYQTRSHINFDDGTITIETIAGTEPAAHLRRAIIKTLLMGDDPSSVDLYSDVDDITISKEPFLYGQVVDNTGQPIRWEGRASNFADYLLKNRLKSRSNGLRIIYSVTINMVPNHLDKRAHKYLGMVRQASRKYGVDESLILAIMQTESSFNPYAVSRSDALGLMQVVQHTAGKDVFRSQGKSGTPSRSFLFDPASNIDTGTAYLAMLNNVYLGGIDNPTSRRYAVITAYNGGAGSVLRVFSNDKIQAANIINTMTPGDVYQTLTTRHPSAESRRYLYKVNTAQKSYRRR [P0C066]	6.29 ± 0.53	–	6.24 ± 0.8	–	4.92 ± 0.2	3.27 ± 0.4	5.3 ± 0.52	9.66 ± 1.5	6.34 ± 0.94	12.6 ± 2.2	7.12	–
MKLAACFLTLLPGFAVAASWTSPGFPAFSEQGTGTFVSHAQLPKGTRPLTLNFDQQCWQPADAIKLNQMLSLQPCSNTPPQWRLFRDGEYTLQIDTRSGTPTLMISIQNAAEPVASLVRECPKWDGLPLTVDVSATFPEGAAVRDYYSQQIAIVKNGQIMLQPAATSNGLLLLERAETDTSAPFDWHNATVYFVLTDRFENGDPSNDQSYGRHKDGMAEIGTFHGGDLRGLTNKLDYLQQLGVNALWISAPFEQIHGWVGGGTKGDFPHYAYHGYYTQDWTNLDANMGNEADLRTLVDSAHQRGIRILFDVVMNHTGYATLADMQEYQFGALYLSGDEVKKSLGERWSDWKPAAGQTWHSFNDYINFSDKTGWDKWWGKNWIRTDIGDYDNPGFDDLTMSLAFLPDIKTESTTASGLPVFYKNKMDTHAKAIDGYTPRDYLTHWLSQWVRDYGIDGFRVDTAKHVELPAWQQLKTEASAALREWKKANPDKALDDKPFWMTGEAWGHGVMQSDYYRHGFDAMINFDYQEQAAKAVDCLAQMDTTWQQMAEKLQGFNVLSYLSSHDTRLFREGGDKAAELLLLAPGAVQIFYGDESSRPFGPTGSDPLQGTRSDMNWQDVSGKSAASVAHWQKISQFRARHPAIGAGKQTTLLLKQGYGFVREHGDDKVLVVWAGQQ	4.78 ± 0.17	7.23 ± 0.88	4.97	7.45	5.36 ± 0.33	3.262 ± 0.0075	6.26 ± 0.66	–	5.75	9.72	7.07	9.37 ± 2.8
MKLFAQGTSLDLSHPHVMGILNVTPDSFSDGGTHNSLIDAVKHANLMINAGATIIDVGGESTRPGAAEVSVEEELQRVIPVVEAIAQRFEVWISVDTSKPEVIRESAKVGAHIINDIRSLSEPGALEAAAETGLPVCLMHMQGNPKTMQEAPKYDDVFAEVNRYFIEQIARCEQAGIAKEKLLLDPGFGFGKNLSHNYSLLARLAEFHHFNLPLLVGMSRKSMIGQLLNVGPSERLSGSLACAVIAAMQGAHIIRVHDVKETVEAMRVVEATLSAKENKRYE [P0AC13]	4.15 ± 0.55	3.78 ± 0.098	4.96 ± 1.8	4.16 ± 0.19	3.72 ± 0.14	2.881 ± 0.016	4.48 ± 0.86	–	3.94 ± 0.15	6.23 ± 0.25	5.63 ± 0.14	11.3 ± 0.29
